B1: W8Y B: tsGBP2.13C.W8Y (SEQ ID NO: 39) Badan conjugate (conjugate)
chain: MKLEIFSYWAGDCGPALEALIRLYKQKYPGVEVINATVTGGAGVNAKAVLKTRMLGGDPPDTFQVHAGQELIGTWVVADRMEDLTSLFRQEGWLQAFPKGLIDLLSYKGGIWSVPVNIHRSNVMWYIPAKLKEWGVTPPKTWAEFLATAQTLKRKGLEAPLALGENWTQQHLWESVALATLGADGWNNLWSGKLKFTDPKAVAVWETFGKVLDAANKDAAGLSWQQAVDRVVQGKAAFNIMGDWAAGYMSTTLKLKPGTDFAWTPSPGTSGIFMMLSDSFGLPKGAKNRQNAINWLKLVGSKEGQDTFNPLKGSIAARLDSDPAKYNAYGQSAMKDWKSNRIVGSLVHGAVAPESFMSQFGTVMEIFLQSRNPQAAANAAQAIANQVGLGRGGSHHHHHH
modifications: Badan conjugate; tsGBP2.13C.W8Y (13C, 8Y double substitution mutant with signal peptide replaced with M and a GGSHHHHHH at C-terminus)
B2: W9F A: tsGBP2.13C.W9F (SEQ ID NO: 40) Acrylodan conjugate (conjugate)
chain: MKLEIFSWFAGDCGPALEALIRLYKQKYPGVEVINATVTGGAGVNAKAVLKTRMLGGDPPDTFQVHAGQELIGTWVVADRMEDLTSLFRQEGWLQAFPKGLIDLLSYKGGIWSVPVNIHRSNVMWYIPAKLKEWGVTPPKTWAEFLATAQTLKRKGLEAPLALGENWTQQHLWESVALATLGADGWNNLWSGKLKFTDPKAVAVWETFGKVLDAANKDAAGLSWQQAVDRVVQGKAAFNIMGDWAAGYMSTTLKLKPGTDFAWTPSPGTSGIFMMLSDSFGLPKGAKNRQNAINWLKLVGSKEGQDTFNPLKGSIAARLDSDPAKYNAYGQSAMKDWKSNRIVGSLVHGAVAPESFMSQFGTVMEIFLQSRNPQAAANAAQAIANQVGLGRGGSHHHHHH
modifications: Acrylodan conjugate; tsGBP2.13C.W9F (13C 9F double substitution mutant with signal peptide replaced with M and a GGSHHHHHH at C-terminus)
B3: W9M A: tsGBP2.13C.W9M (SEQ ID NO: 41) Acrylodan conjugate (conjugate)
chain: MKLEIFSWMAGDCGPALEALIRLYKQKYPGVEVINATVTGGAGVNAKAVLKTRMLGGDPPDTFQVHAGQELIGTWVVADRMEDLTSLFRQEGWLQAFPKGLIDLLSYKGGIWSVPVNIHRSNVMWYIPAKLKEWGVTPPKTWAEFLATAQTLKRKGLEAPLALGENWTQQHLWESVALATLGADGWNNLWSGKLKFTDPKAVAVWETFGKVLDAANKDAAGLSWQQAVDRVVQGKAAFNIMGDWAAGYMSTTLKLKPGTDFAWTPSPGTSGIFMMLSDSFGLPKGAKNRQNAINWLKLVGSKEGQDTFNPLKGSIAARLDSDPAKYNAYGQSAMKDWKSNRIVGSLVHGAVAPESFMSQFGTVMEIFLQSRNPQAAANAAQAIANQVGLGRGGSHHHHHH
modifications: Acrylodan conjugate; tsGBP2.13C.W9M (13C 9M double substitution mutant with signal peptide replaced with M and a GGSHHHHHH at C-terminus)
B4: W9F B: tsGBP2.13C.W9F (SEQ ID NO: 40) Badan conjugate (conjugate)
chain: MKLEIFSWFAGDCGPALEALIRLYKQKYPGVEVINATVTGGAGVNAKAVLKTRMLGGDPPDTFQVHAGQELIGTWVVADRMEDLTSLFRQEGWLQAFPKGLIDLLSYKGGIWSVPVNIHRSNVMWYIPAKLKEWGVTPPKTWAEFLATAQTLKRKGLEAPLALGENWTQQHLWESVALATLGADGWNNLWSGKLKFTDPKAVAVWETFGKVLDAANKDAAGLSWQQAVDRVVQGKAAFNIMGDWAAGYMSTTLKLKPGTDFAWTPSPGTSGIFMMLSDSFGLPKGAKNRQNAINWLKLVGSKEGQDTFNPLKGSIAARLDSDPAKYNAYGQSAMKDWKSNRIVGSLVHGAVAPESFMSQFGTVMEIFLQSRNPQAAANAAQAIANQVGLGRGGSHHHHHH
modifications: Badan conjugate; tsGBP2.13C.W9F (13C 9F double substitution mutant with signal peptide replaced with M and a GGSHHHHHH at C-terminus)
B5: Q64M A: tsGBP2.13C.Q64M (SEQ ID NO: 45) Acrylodan conjugate (conjugate)
chain: MKLEIFSWWAGDCGPALEALIRLYKQKYPGVEVINATVTGGAGVNAKAVLKTRMLGGDPPDTFMVHAGQELIGTWVVADRMEDLTSLFRQEGWLQAFPKGLIDLLSYKGGIWSVPVNIHRSNVMWYIPAKLKEWGVTPPKTWAEFLATAQTLKRKGLEAPLALGENWTQQHLWESVALATLGADGWNNLWSGKLKFTDPKAVAVWETFGKVLDAANKDAAGLSWQQAVDRVVQGKAAFNIMGDWAAGYMSTTLKLKPGTDFAWTPSPGTSGIFMMLSDSFGLPKGAKNRQNAINWLKLVGSKEGQDTFNPLKGSIAARLDSDPAKYNAYGQSAMKDWKSNRIVGSLVHGAVAPESFMSQFGTVMEIFLQSRNPQAAANAAQAIANQVGLGRGGSHHHHHH
modifications: Acrylodan conjugate; tsGBP2.13C.Q64M (13C, 64M double substitution mutant with signal peptide replaced with M and a GGSHHHHHH at C-terminus)
B6: W9M B: tsGBP2.13C.W9M (SEQ ID NO: 41) Badan conjugate (conjugate)
chain: MKLEIFSWMAGDCGPALEALIRLYKQKYPGVEVINATVTGGAGVNAKAVLKTRMLGGDPPDTFQVHAGQELIGTWVVADRMEDLTSLFRQEGWLQAFPKGLIDLLSYKGGIWSVPVNIHRSNVMWYIPAKLKEWGVTPPKTWAEFLATAQTLKRKGLEAPLALGENWTQQHLWESVALATLGADGWNNLWSGKLKFTDPKAVAVWETFGKVLDAANKDAAGLSWQQAVDRVVQGKAAFNIMGDWAAGYMSTTLKLKPGTDFAWTPSPGTSGIFMMLSDSFGLPKGAKNRQNAINWLKLVGSKEGQDTFNPLKGSIAARLDSDPAKYNAYGQSAMKDWKSNRIVGSLVHGAVAPESFMSQFGTVMEIFLQSRNPQAAANAAQAIANQVGLGRGGSHHHHHH
modifications: Badan conjugate; tsGBP2.13C.W9M (13C 9M double substitution mutant with signal peptide replaced with M and a GGSHHHHHH at C-terminus)
B7: W9Y B: tsGBP2.13C.W9Y (SEQ ID NO: 42) Badan conjugate (conjugate)
chain: MKLEIFSWYAGDCGPALEALIRLYKQKYPGVEVINATVTGGAGVNAKAVLKTRMLGGDPPDTFQVHAGQELIGTWVVADRMEDLTSLFRQEGWLQAFPKGLIDLLSYKGGIWSVPVNIHRSNVMWYIPAKLKEWGVTPPKTWAEFLATAQTLKRKGLEAPLALGENWTQQHLWESVALATLGADGWNNLWSGKLKFTDPKAVAVWETFGKVLDAANKDAAGLSWQQAVDRVVQGKAAFNIMGDWAAGYMSTTLKLKPGTDFAWTPSPGTSGIFMMLSDSFGLPKGAKNRQNAINWLKLVGSKEGQDTFNPLKGSIAARLDSDPAKYNAYGQSAMKDWKSNRIVGSLVHGAVAPESFMSQFGTVMEIFLQSRNPQAAANAAQAIANQVGLGRGGSHHHHHH
modifications: Badan conjugate; tsGBP2.13C.W9Y (13C, 9Y double substitution mutant with signal peptide replaced with M and a GGSHHHHHH at C-terminus)

Assay: Ratiometric fluorescence glucose titration of fluorescent conjugates
Type: binding
Design: key to Shape (fluorescence response to glucose) / Change (fluorescence response to glucose): m, monochromatic; d, dichromatic (i.e. spectral shape change); 0, no change
Details: tsGBP 13C affinity mutants, Acrylodan or Badan conjugates
Method in brief: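 Single-cysteine glucose-binding protein mutants labelled site-specifically with thiol-reactive environmentally sensitive fluorophores; emission spectra recorded during glucose titration to detect ligand-mediated intensity and spectral-shape changes for ratiometric read-out. Temperature- and ligand-dependent fluorescence landscapes acquired in 1K steps; binding fitted to single-site fractional saturation.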

Molecule	Change (fluorescence response to glucose)
B1	0
B2	m
B3	m
B4	0
B5	m/d
B6	m^c
B7	m
